Patent US20200247894A1 (Regeneron, published 2020)
Values belong to the binder of their own block, whether it stands above or below them.

Key:
[1] = target: T1, D2 domain of human IL2Rγ extracellular domain expressed with a C-terminal myc-myc-hexahistidine tag (human); assay: SPR, mAb captured on anti-hFc, 37 C
T1 construct: also called human IL2Rγ domain 2
T1 chain: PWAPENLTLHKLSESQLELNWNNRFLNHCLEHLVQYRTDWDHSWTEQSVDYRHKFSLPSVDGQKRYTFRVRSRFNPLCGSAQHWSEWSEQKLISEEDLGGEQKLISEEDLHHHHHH
Experimental: (§1) Equilibrium dissociation constants (KD values) for IL-2Rγ binding to purified anti-IL2Rγ monoclonal antibodies were determined using a Biacore 4000 instrument equipped with a real-time surface plasmon resonance biosensor. All binding studies were performed in 10 mM HEPES, 150 mM NaCl, 3 mM EDTA, and 0.05% v/v Surfactant Tween-20, pH 7.4 (HBS-ET) running buffer at 25° C. and 37° C. The Biacore sensor surface was first derivatized by amine coupling with a monoclonal mouse anti-human Fc antibody (GE, # BR-1008-39) to capture anti-IL2Rγ monoclonal antibodies.

[2] = target: T1, D2 domain of human IL2Rγ extracellular …; assay: SPR, mAb captured on anti-hFc, 25 C
Experimental: as §1

[3] = target: T2, D1 domain of human IL-2Rγ extracellular domain expressed with a C-terminal myc-myc-hexahistidine tag (human); assay: SPR, mAb captured on anti-hFc, 25 C
T2 construct: also called human IL2Rγ domain 1
T2 chain: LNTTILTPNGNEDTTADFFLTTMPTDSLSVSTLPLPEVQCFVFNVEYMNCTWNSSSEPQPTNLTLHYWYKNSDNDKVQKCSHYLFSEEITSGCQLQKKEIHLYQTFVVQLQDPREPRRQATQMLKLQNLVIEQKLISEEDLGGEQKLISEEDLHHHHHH
Experimental: as §1
(§2) The dissociation of monoclonal antibody bound IL2Rγ reagents were monitored for 8-10 minutes in HBS-ET running buffer. Kinetic association (kₐ) and dissociation (kd) rate constants were determined by fitting the real-time sensorgrams to a 1:1 binding model using Scrubber 2.0c curve fitting software. Binding dissociation equilibrium constants (KD) and dissociative half-lives (t_{1/2}) were calculated from the kinetic rate constants as: […]

[4] = target: T2, D1 domain of human IL-2Rγ extracellular …; assay: SPR, mAb captured on anti-hFc, 37 C
Experimental: as §1, §2

[5] = target: T3, human IL2Rγ (endogenously expressed on cells) (human, UniProt P31785 23-369); assay: cell-based or functional assay
T3 sequence (looked up): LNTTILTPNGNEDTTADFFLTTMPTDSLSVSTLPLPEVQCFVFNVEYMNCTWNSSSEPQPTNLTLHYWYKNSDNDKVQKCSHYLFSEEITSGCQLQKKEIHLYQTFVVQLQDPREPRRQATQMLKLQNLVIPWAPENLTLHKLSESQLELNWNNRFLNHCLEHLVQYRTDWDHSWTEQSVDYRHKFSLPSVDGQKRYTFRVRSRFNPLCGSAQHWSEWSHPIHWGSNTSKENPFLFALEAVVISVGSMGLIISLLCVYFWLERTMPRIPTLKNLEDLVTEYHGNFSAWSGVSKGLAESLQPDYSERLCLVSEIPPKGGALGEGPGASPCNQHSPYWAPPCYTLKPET

- 100 nM Ag Bound [1]: 4 RU
- 100 nM Ag Bound [2]: 5 RU
- binding result [2]: no binding (tested: 100 nM)
- 100 nM Ag Bound [3]: 24 RU
- Kd [3]: 57.8 nM
- koff [3]: 0.00207 s⁻¹
- kon [3]: 35800 M⁻¹ s⁻¹
- t½ [3]: 6 min
- 100 nM Ag Bound [4]: 22 RU
- Kd [4]: 225 nM
- koff [4]: 0.0105 s⁻¹
- kon [4]: 46400 M⁻¹ s⁻¹
- t½ [4]: 1.1 min
B1: H4H13544P2 (antibody, human IgG4 S228P, kappa, V domains shown)
VH: QLQLQESGPGLVKPSETLSLTCTVSGGSISIKNYYWGWIRQPPGKGLEWIGSIYYSGTTYYNPSLKSRVTISVDTSKNQFSLKLSSVTAADTAVYHCARHGYSYGHGWFDPWGQGTLVTVSS
VL: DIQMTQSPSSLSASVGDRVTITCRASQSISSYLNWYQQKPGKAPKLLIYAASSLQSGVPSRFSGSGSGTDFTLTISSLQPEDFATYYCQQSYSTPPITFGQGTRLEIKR
notes: human IgG4

- IC50; IL-4 250 pM; Ramos.2G6.4C10/STAT3-luc [5]: > 1e-07 M
- IC50; IL-7 50 pM; NK92/hIL7R/STAT3-luc [5]: > 1e-07 M
- IC50; IL-9 20 pM; NK92/hIL7R/STAT3-luc [5]: > 1e-07 M
- IC50; IL-15 60 pM; NK92/hIL7R/STAT3-luc [5]: > 1e-07 M
- Max Inhibition (%); IL-2 30 pM; NK92/hIL7R/STAT3-luc [5]: 27%
- Max Inhibition (%); IL-4 250 pM; Ramos.2G6.4C10/STAT3-luc [5]: 92%
- Max Inhibition (%); IL-7 50 pM; NK92/hIL7R/STAT3-luc [5]: 81%
- Max Inhibition (%); IL-9 20 pM; NK92/hIL7R/STAT3-luc [5]: 84%
- Max Inhibition (%); IL-15 60 pM; NK92/hIL7R/STAT3-luc [5]: 64%
- Max Inhibition (%); IL-21 5 pM; NK92/hIL7R/STAT3-luc [5]: 18%
- 100 nM Ag Bound [1]: 26 RU
- Kd [1]: 11.4 nM
- koff [1]: 0.000377 s⁻¹
- kon [1]: 33100 M⁻¹ s⁻¹
- t½ [1]: 31 min
- 100 nM Ag Bound [2]: 35 RU
- Kd [2]: 0.535 nM
- koff [2]: 0.000148 s⁻¹
- kon [2]: 276000 M⁻¹ s⁻¹
- t½ [2]: 78 min
- 100 nM Ag Bound [3]: 0 RU
- 100 nM Ag Bound [4]: 0 RU
- binding result [4]: no binding (tested: 100 nM)
B2: H4H12886P (antibody, human IgG4 S228P, kappa, V domains shown)
VH: EVQLVESGGGLVKPGGSLRLSCAASGFTFSTAWMSWVRQSPGRGLEWVGRMKSKTDGGTTFYAAPVKGRFTISRDDSKNTLYLQMNSLKTEDTAVYYCTTGLVPAFYKYYGVDVWGQGTTVTVSS
VL: DIQMTQSPSSLSASVGDRITITCQASQDITNYLNWYQQKPGKAPNLLIYDASNLVTGVPSRFSGSGSGTDFTFTILSLQPEDIATYYCQQYDSLLTFGPGTKVDIKR
notes: human IgG4

- IC50; IL-7 50 pM; NK92/hIL7R/STAT3-luc [5]: 2.3e-09 M
- Max Inhibition (%); IL-2 30 pM; NK92/hIL7R/STAT3-luc [5]: 13%
- Max Inhibition (%); IL-4 250 pM; Ramos.2G6.4C10/STAT3-luc [5]: 19%
- Max Inhibition (%); IL-7 50 pM; NK92/hIL7R/STAT3-luc [5]: 34%
- 100 nM Ag Bound [1]: 2 RU
- 100 nM Ag Bound [2]: 1 RU
- binding result [2]: no binding (tested: 100 nM)
- 100 nM Ag Bound [3]: 51 RU
- Kd [3]: 11.8 nM
- koff [3]: 0.00196 s⁻¹
- kon [3]: 166000 M⁻¹ s⁻¹
- t½ [3]: 6 min
- 100 nM Ag Bound [4]: 32 RU
- Kd [4]: 32.9 nM
- koff [4]: 0.00442 s⁻¹
- kon [4]: 134000 M⁻¹ s⁻¹
- t½ [4]: 2.6 min
B3: H4H12884P (antibody, human IgG4 S228P, kappa, V domains shown)
VH: QVQLQESGPGLVKPSQTLSLTCTVSGGSISSGGYYWSWIRQHPGKGLEWIGFIYYSGKTYYNPSLKSRLTISVDTSKSQFSLKLRSVTAADTAVYYCARLGYTNSAGWFDPWGQGTLVTVSS
VL: DIQMTQSPSSLSASVGDRVTITCRASQSISSYLNWYQQKPGKAPNLLIYAASSLQSGVPSRFSGSGSGTDFTLTISSLQPEDLATYYCQQSYTTPFTFGPGTKVDIKR
notes: human IgG4

- 100 nM Ag Bound [1]: 3 RU
- 100 nM Ag Bound [2]: 5 RU
- binding result [2]: no binding (tested: 100 nM)
- 100 nM Ag Bound [3]: 8 RU
- binding result [3]: no binding (tested: 100 nM)
- 100 nM Ag Bound [4]: 4 RU
B4: H4H13545P2 (antibody, human IgG4 S228P, kappa, V domains shown)
VH: QVQLQQSGPGLVKPSQTLSLTCDISGDSVSSNIATWNWIRQSPSRGLEWLGRTYYRSKWYKDYAVSVKSRITINPDTSKNQFSLQVNSVTPEDTAVYYCARMTGPRYYFEYWGQGTLVTVSS
VL: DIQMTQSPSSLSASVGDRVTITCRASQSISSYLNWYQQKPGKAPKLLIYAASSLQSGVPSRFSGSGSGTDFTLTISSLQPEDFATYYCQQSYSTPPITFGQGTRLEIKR
notes: human IgG4
